# Test results: publication PMC5442856, “A bacterial negative transcription regulator binding on an inverted repeat in the promoter for epothilone biosynthesis”
# T1: Esi (His-Esi) (Sorangium cellulosum So0157-2, UniProt UPI000354DD11 1-373)
# T1 sequence: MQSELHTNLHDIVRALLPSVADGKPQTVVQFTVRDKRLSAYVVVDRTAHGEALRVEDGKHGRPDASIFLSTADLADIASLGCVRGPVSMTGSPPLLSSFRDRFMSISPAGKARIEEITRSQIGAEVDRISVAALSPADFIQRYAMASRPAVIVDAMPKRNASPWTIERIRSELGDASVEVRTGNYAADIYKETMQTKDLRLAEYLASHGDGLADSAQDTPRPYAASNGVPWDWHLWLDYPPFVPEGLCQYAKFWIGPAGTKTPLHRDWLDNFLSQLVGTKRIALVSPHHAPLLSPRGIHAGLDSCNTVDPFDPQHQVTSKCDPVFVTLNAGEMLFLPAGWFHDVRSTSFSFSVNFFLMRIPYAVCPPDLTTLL
# B1: 17-bp operator of epothilone promoter (dsDNA)
# DNA 1: GGGACGAGCTAATTCCC
# DNA 2: GGGAATTAGCTCGTCCC
# Biological target: T1, Esi (His-Esi)
# Test: EMSA; poly(dI-dC) competitor; increasing His-Esi; 12 pmol DNA; EMSA: 25 uL with 2.5 uL of 10x buffer (final about 12 mM HEPES, 4 mM Tris, 60 mM KCl, 5 mM MgCl2, 0.1 mM EDTA, pH 8.0), 1 uL glycerol buffer (20% glycerol, 20 mM HEPES), poly(dI-dC), remainder protein and 50 mM NaH2PO4; 30 C, 30 min; 5% native PAGE in TGE pH 8.0 at 4 C
# Settings: protein: recombinant; tags: N-terminal 6xHis (pET-28a); blunt
binder,measurement,value
B1,binding result,binds
